# Reference: US10006080B2, “High-selectivity contact activation inhibitor based on infestin-4” (OBSCHESTVO S OGRANICHENNOY OTVETSTVENNOSTYU …, priority 2013, dated 2018)
# Assays:
# hypercoagulant PFP = experiment: Thrombodynamics analyzer T-2, clots far from the activator in hypercoagulant PFP (100 pM fXIa added); format: biochemical, human; conditions: MutB 20 μM, CTI 15 μM; for time of appearance of clots far from the activator after activation: hypercoagulant PFP, nearly 5-8 minutes without inhibitor
# Protocol: To assess the influence of the said contact activation inhibitors on appearance, far from the activator, of clots provoked by hypercoagulation, but not by contact activation of the sample by the cuvette walls, we added MutB (20 μM) and CTI (15 μM) into 2 separate samples of hypercoagulant PFP. Hypercoagulant PFP was obtained from normal frozen-thawed PFP by adding 100 pM of fXIa.
# The influence of a polypeptide consisting of the sequence of an infestin-4 mutant MutB on the growth of fibrin clots in the samples of hypocoagulant, normal, and hypercoagulant blood plasma was studied using the laboratory diagnostic system «Thrombodynamics analyzer T-2» and the «Diagnostic kit for thrombodynamics investigation in blood plasma» (HemaCore, Moscow, Russia) according to the manual to the «Diagnostic kit for thrombodynamics investigation in blood plasma» (HemaCore, Moscow, Russia). Here, the said polypeptide was preliminarily proteolytically cleaved and chromatographically purified from thioredoxin (Trx). 15 minutes before the assay, the measuring cuvette, insert-activator with immobilized TF, and the reagents were held at 37° C. Standard investigation temperature was of 37° C. 15 minutes before the assay, 120 microliters of plasma were mixed with the investigated substances, MutB or CTI, for comparison, and put into a microtube. After mixing of the plasma with the substances, the tube with the plasma was put into a thermostat at 37° C. for 15 minutes. Immediately before the assay, the plasma was re-calcified: 120 microliters of the mixture of plasma and substances were put into a microtube with Reagent II (lyophilized solution of calcium acetate with an additive), and mixed up to complete Reagent II dilution. Then, 120 microliters of the mixture with Reagent II from the microtube was immediately transferred into the measuring cuvette. After that, the insert-activator was carefully inserted into the cuvette so that the surface with immobilized tissue factor would contact the plasma. Immediately after the contact of the coagulation activator with the blood plasma, the photography of the process of fibrin clot growth in plasma within the cuvette started. The cuvette-activator was a plate with the coagulation activator—tissue factor—immobilized at the low end surface (Fadeeva et al. 2010, Biochemistry (Moscow) 75:827-838). The automatic calculation of the assay results was performed using the software (user manual «Software for the laboratory diagnostic system «Thrombodynamics analyzer T-2», HemaCore, Moscow, Russia).
# whole blood = experiment: Spontaneous clotting time of whole blood collected without calcium chelator; parameters: species or system human; conditions: MutB 10 μM, CTI 5 μM; 22° C., no calcium chelator; 3 healthy donors
# Protocol: We used concentrations of contact activation inhibitors leading to 2.5-fold increase of APTT in normal plasma. Untreated whole blood was collected from 3 healthy donors without adding any anticoagulant, for example, citrate, except for the said contact activation inhibitors. The blood was mixed with the said inhibitors at 22° C. using a rotator, after which the time of clot formation in the blood was measured.
# Blood was collected from the median cubital vein of the left hand into a sterile syringe Master UN PE, volume 10 ml, needle 21 G×1½″; 0.8×40 mm (FarmLine, USA). Calcium chelator or other anticoagulants, except contact activation inhibitors MutB or CTI, were not added into plasma. […] The collected blood was poured into a 15 ml tube, mixed by inverting it twice, after which 0.7 ml portions of blood were poured into 1.5 ml polypropylene microcentrifuge tubes MaxyClear Snaplock (Axygen, USA); immediately after, time record using a stopwatch started. Preliminarily, 78 microliters of MutB solution at 100 μM concentration, CTI solution at 50 μM concentration, or buffer solution of 30 mM Hepes pH 7.4 were added into the said tubes. The tubes containing the mixture of whole blood with the said solutions were fixed in the rotator and mixed by inverting them at the rotation speed of 10 rpm. The time of appearance of clots or fibrin filaments in the whole blood during mixing was fixed.
# fXIa = target: T1, fXIa (Homo sapiens, UniProt P03951); experiment: Chromogenic test of protease inhibition in buffer, fXIa (substrate S-2366); format: biochemical; conditions: buffer solution, summary of Table 2
# T1 construct: factor XI into its active form, factor XIa (fXIa)
# Protocol: In order to assess selectivity of the fXIIa inhibition by the polypeptide comprising the sequence of the infestin-4 mutant MutB, its inhibitory activity in buffer solution against the purified coagulation factors was determined. The polypeptide's activity was compared with the known fXIIa inhibitors: CTI, infestin-4, infestin-4-based mutant Mut15, LCTI-III. […] The standard deviation amounted to about 50% of the average value; each value was measured by performing 2-3 repeats.
# To determine the inhibition activity of such proteins as MutB, CTI, Inf4, Mut15, and LCTI-III as related to different coagulation proteases in a buffer, the chromogenic test was used: the mixture of protease and inhibitor was incubated in the wells of the plate for 15 minutes at 37° C., after which the chromogenic substrate solution was added to the mixture, and the protease activity was measured as the rate of chromogenic product formation at 37° C.
# Chromogenic substrates included a p-nitroanilide group cleaved by the corresponding proteases. After cleavage of the p-nitroanilide group from the substrate molecule, the group absorption spectrum changes, and the change of concentration of such product within time can be detected at the light wavelength of 405 nm using a plate spectrophotometer. To build a dependence curve of the protease activity from the inhibitor concentration, different inhibitor concentrations were added into several samples with the same protease concentration. After that, the inhibitor concentration able to decrease the protease activity by 50% (IC50) was determined. The inhibition constant Ki was calculated using the Cheng-Prusoff equation (Ki=IC50/(1+S/KM)), where S is the initial substrate concentration, KM is the Michaelis-Menten constant of the substrate to the protease.
# Native infestin-4 and its mutants MutB and Mut15 used here were fusion proteins with thioredoxin I E. coli containing polyhisticline clusters. […]
# T1 sequence (P03951 388-625 limits assumed): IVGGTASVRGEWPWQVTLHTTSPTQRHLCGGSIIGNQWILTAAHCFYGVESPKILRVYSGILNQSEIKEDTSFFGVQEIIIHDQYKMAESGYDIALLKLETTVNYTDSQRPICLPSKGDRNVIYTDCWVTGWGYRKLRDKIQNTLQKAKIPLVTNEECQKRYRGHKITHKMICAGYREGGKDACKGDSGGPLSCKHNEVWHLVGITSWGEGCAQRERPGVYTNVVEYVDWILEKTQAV
# T1 sequence (P03951 19-387 partner limits assumed): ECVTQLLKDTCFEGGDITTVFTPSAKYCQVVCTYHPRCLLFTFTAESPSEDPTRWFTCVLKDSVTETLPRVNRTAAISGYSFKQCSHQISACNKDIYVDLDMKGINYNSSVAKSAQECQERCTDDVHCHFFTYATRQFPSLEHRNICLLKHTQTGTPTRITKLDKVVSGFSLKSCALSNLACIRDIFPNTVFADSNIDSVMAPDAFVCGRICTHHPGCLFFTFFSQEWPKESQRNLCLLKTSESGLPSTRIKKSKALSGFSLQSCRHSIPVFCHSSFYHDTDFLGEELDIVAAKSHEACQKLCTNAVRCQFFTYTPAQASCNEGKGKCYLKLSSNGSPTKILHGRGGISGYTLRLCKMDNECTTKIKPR
inhibition of fXIa (in words) (fXIa),Molecule,influence on appearance of clots far from the activator in hypercoagulant plasma (hypercoagulant PFP),time of appearance of clots far from the activator after activation (hypercoagulant PFP) [min],increase of the whole blood storage time in the tube (clotting time) (whole blood)
do not inhibit,"MutB: polypeptide comprising the sequence of infestin-4 mutant MutB (SEQ ID NO: 1), inhibition loop TRNFVA; high-selectivity fXIIa inhibitor (EVRNPCACTRNFVAVCGSDGKTYGNPCMLNCAAQTKVPGLKLVHEGRCQRSNVEQF; Infestin-4 mutant MutB)",does not influence appearance of clots far from the activator,5 to 8,two to three-fold
inhibits,"corn trypsin inhibitor (other, UniProt P01088 29-138, looked up, Isolated from corn; also called CTI) SAGTSCVPGWAIPHNPLPSCRWYVTSRTCGIGPRLPWPELKRRCCRELADIPAYCRCTALSILMDGAIPPGPDAQLEGRLEDLPGCPREVQRGFAATLVTEAECNLATIS",delays appearance of clots far from the activator,10 to 15,two to three-fold
